Measured values taken from publication PMC4995099, “Drosophila Nanos acts as a molecular clamp that modulates the RNA-binding and repression activities of Pumilio”.

T1: Drosophila Pum RNA-binding domain (amino acids 1091–1426), crystallisation construct (Drosophila melanogaster) (UniProt P25822)
T1 sequence: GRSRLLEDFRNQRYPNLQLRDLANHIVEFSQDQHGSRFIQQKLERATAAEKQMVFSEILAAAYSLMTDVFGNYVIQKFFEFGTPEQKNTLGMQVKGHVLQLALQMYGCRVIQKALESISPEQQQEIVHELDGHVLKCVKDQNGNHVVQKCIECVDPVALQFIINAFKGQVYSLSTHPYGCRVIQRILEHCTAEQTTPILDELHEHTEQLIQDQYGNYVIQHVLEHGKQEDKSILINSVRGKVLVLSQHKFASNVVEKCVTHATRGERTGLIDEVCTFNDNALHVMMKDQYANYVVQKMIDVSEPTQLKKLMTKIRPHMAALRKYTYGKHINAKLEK

T2: Pum RNA-binding domain (aa1091-1426) with N-terminal triple FLAG tag, EMSA construct (Drosophila melanogaster, UniProt P25822-1 1091-1426)
T2 chain: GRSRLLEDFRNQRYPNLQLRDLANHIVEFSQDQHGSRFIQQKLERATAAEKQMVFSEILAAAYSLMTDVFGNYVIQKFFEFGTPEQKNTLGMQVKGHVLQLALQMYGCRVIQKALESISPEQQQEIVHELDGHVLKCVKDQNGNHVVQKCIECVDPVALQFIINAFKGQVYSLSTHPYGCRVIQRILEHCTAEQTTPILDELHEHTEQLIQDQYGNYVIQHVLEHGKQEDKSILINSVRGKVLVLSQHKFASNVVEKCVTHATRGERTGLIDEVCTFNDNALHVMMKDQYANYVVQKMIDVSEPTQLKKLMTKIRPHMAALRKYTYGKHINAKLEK

T3: Pum PUM-HD WT (EMSA) (UniProt P25822 1091-1426)
T3 sequence: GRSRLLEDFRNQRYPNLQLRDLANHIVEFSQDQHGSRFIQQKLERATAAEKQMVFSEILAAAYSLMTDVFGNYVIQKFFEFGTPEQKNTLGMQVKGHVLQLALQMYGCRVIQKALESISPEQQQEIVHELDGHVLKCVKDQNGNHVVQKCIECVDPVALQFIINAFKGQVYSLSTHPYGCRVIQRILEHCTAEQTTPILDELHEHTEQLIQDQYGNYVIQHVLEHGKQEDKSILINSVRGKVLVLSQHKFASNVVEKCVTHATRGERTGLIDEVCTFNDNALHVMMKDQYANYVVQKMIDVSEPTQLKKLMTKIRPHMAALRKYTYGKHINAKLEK

T4: Pum PUM-HD WT (EMSA);Nos ZC WT (EMSA) (Drosophila melanogaster?;Drosophila …, UniProt P25822;P25724 1091-1426;289-401, |)
T4 sequence 1: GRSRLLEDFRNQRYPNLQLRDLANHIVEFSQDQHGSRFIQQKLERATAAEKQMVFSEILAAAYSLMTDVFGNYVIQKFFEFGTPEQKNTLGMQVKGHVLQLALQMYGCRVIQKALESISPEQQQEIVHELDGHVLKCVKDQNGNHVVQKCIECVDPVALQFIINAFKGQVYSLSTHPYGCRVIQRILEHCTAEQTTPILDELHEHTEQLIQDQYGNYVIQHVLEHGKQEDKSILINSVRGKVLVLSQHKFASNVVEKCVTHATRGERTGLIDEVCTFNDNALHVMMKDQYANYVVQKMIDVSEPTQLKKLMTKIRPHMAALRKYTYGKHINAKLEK
T4 sequence 2: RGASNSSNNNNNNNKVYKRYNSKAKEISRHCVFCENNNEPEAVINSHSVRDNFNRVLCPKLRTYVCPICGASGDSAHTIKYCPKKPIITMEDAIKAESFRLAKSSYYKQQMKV


Tests used:
[1] = target: T1, Drosophila Pum RNA-binding domain (amino acids 1091–1426), crystallisation construct (Drosophila melanogaster)
[2] = target: T2, Pum RNA-binding domain (aa1091-1426) …; experiment: EMSA, Nos binding to Pum–hb NRE2 RNA complex (100 nM Pum)
[3] = target: T3, Pum PUM-HD WT (EMSA); experiment: EMSA; EMSA: 50 mM Tris-HCl pH 7.6, 150 mM NaCl, 2 mM DTT, 2 ug/mL BSA, 0.01% Igepal CA-630, 0.02% bromophenol blue, 20% glycerol, 3 h at 4 C; 1 nM Cy5 RNA or 0.3 nM 32P RNA; conditions: protein: recombinant; tags: N-terminal 3xFLAG; Halo-tag removed by TEV
[4] = target: T3, Pum PUM-HD WT (EMSA); experiment: EMSA; N/D; EMSA: 50 mM Tris-HCl pH 7.6, 150 mM NaCl, 2 mM DTT, 2 ug/mL BSA, 0.01% Igepal CA-630, 0.02% bromophenol blue, 20% glycerol, 3 h at 4 C; 1 nM Cy5 RNA or 0.3 nM 32P RNA; conditions: protein: recombinant; tags: N-terminal 3xFLAG; Halo-tag removed by TEV; label: 5' 32P
[5] = target: T4, Pum PUM-HD WT (EMSA);Nos ZC WT (EMSA); experiment: EMSA; 1 uM Nos ZC; N/D; EMSA: 50 mM Tris-HCl pH 7.6, 150 mM NaCl, 2 mM DTT, 2 ug/mL BSA, 0.01% Igepal CA-630, 0.02% bromophenol blue, 20% glycerol, 3 h at 4 C; 1 nM Cy5 RNA or 0.3 nM 32P RNA; conditions: protein: recombinant;recombinant, tags: N-terminal 3xFLAG, Halo-tag removed by TEV;C-terminal V5, copies: 1;1, label: 5' 32P

| Molecule | percent repression of the RnLuc WT hb 3´UTR reporter in D.mel-2 cells (endogenous Pum), against Halo-tag alone [1] [%] | other results |
| --- | --- | --- |
| Halo-Nos NZ (aa1-373) (domain or fragment) | 14 |  |
| Halo-Nos I376A (full-length) (natural protein) | 46 |  |
| Halo-tagged, full-length Nos protein (NZC) (natural protein) MFRSNLEGSGAAADNFSAFHARGGLNILGLQDMYLDTSGANSSATLSPPITPVTPDPSTSAQSTHFPFLADSAATANSLLMQRQYHYHLLLQQQQQLAMAQHQLALAASAAAASASHQQTDEIARSLKIFAQVTTGAAENAAGSMQDVMQEFATNGYASDDLGRMSYGSAPPQVQMPPQQQHQQQQGLHLPLGRNPAQLQTNGGNLMPIPLATHWLNNYREHLNNVWRNMSYIPAAPNTMGLQAQTAATVSTNLGVGMGLGLPVQGEQLRGASNSSNNNNNNNKVYKRYNSKAKEISRHCVFCENNNEPEAVINSHSVRDNFNRVLCPKLRTYVCPICGASGDSAHTIKYCPKKPIITMEDAIKAESFRLAKSSYYKQQMKV | 70 |  |
| Nos ZC (aa289-401) with C-terminal V5 epitope, EMSA construct (domain or fragment, two Zn2+ bound by the CCHC zinc fingers; C-terminal V5 epitope omitted) RGASNSSNNNNNNNKVYKRYNSKAKEISRHCVFCENNNEPEAVINSHSVRDNFNRVLCPKLRTYVCPICGASGDSAHTIKYCPKKPIITMEDAIKAESFRLAKSSYYKQQMKV |  | Kd [2]: 4.6 nM |
| AACUUGUACAUAAGCC (ssRNA) [hb NRE2 -2C RNA] |  | binding result [3]: binds |
| AAAUACAACAUAAGCC (ssRNA) [hb NRE2 ACA RNA] |  | binding result [4]: no binding; binding result [5]: no binding |

The next lines start with results.

| percent repression of the RnLuc WT hb 3´UTR reporter in D.mel-2 cells (endogenous Pum), against Halo-tag alone [1] [%] | Molecule | other results |
| --- | --- | --- |
| 29 | Halo-Nos M378A (full-length) (natural protein) |  |
| 60 | Halo-Nos I382A (full-length) (natural protein) |  |
